Test results published in US20260042834A1 (HBM ALPHA THERAPEUTICS, published 2026).
Residue numbers refer to the chain shown, from its start. Where two headings read alike, the source gives them in different places. One block for each binder: values may come before it.

Experiments:
[1] = biological target: T1, corticotropin-releasing hormone (CRH) peptide (human and mouse, not fully specified); test: cell-based or functional assay
T1 peptide: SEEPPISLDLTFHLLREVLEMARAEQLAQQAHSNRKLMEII

CRH (NT-Biotin) [2] = biological target: T2, CRH (NT-Biotin) (human and mouse, not fully specified; biotin at the N-terminus); test: ELISA, N-terminally biotinylated CRH on streptavidin-coated plate
T2 construct: also called Biotin-CRH; N-terminally biotinylated corticotropin-releasing hormone
T2 peptide: T1 peptide
Description: (§1) Streptavidin (Thermo, Cat: 21125) was diluted in PBS to a concentration of 2 μg/ml. 100 μl of diluted streptavidin was added per well to ELISA microplates, and the plates were incubated overnight at 4° C. […] 100 μL of 3,3′,5,5′-tetramethylbenzidine (TMB) substrate (Biopanda, Cat: TMB-S-003) was added, and the plates were incubated at room temperature for 15 minutes. 100 μL of ELISA stopping solution (Solarbio, Cat #: C1058) was added to terminate the reaction, and the optical density at 450 nm (OD450 nm) was determined by an ELISA plate reader (Molecular Devices, Spectra max 384 plus).

CRH (CT-Biotin) [3] = biological target: T3, CRH (CT-Biotin) (human and mouse, biotin on the added C-terminal K (-K-Biotin)); test: ELISA, C-terminally biotinylated CRH on streptavidin-coated plate
T3 construct: also called Peptide 4 (CRH-Biotin); C-terminally biotinylated corticotropin-releasing hormone
T3 peptide: T1 peptide
Description: as §1

[4] = biological target: T4, corticotropin-releasing hormone (CRH) peptide (human and mouse (same sequence), not fully specified); test: cell-based or functional assay
T4 peptide: T1 peptide

CRH (CT-Biotin) [5] = biological target: T5, CRH (CT-Biotin) (human and mouse (same sequence), biotin on an added C-terminal K (CRH-K-Biotin)); test: ELISA, biotinylated CRH on streptavidin plate
T5 construct: also called Peptide 4 (CRH-Biotin)
T5 peptide: T1 peptide
Description: as §1

CRH (CT-Biotin) [6] = biological target: T5, CRH (CT-Biotin); test: ELISA, biotinylated CRH on streptavidin plate
Description: as §1

CRH (NT-Biotin) [7] = biological target: T6, CRH (NT-Biotin) (human and mouse (same sequence), not fully specified; biotin at the N-terminus); test: ELISA, biotinylated CRH on streptavidin plate
T6 peptide: T1 peptide
Description: as §1

[8] = biological target: T4, corticotropin-releasing hormone (CRH) …; test: cell-based or functional assay

B1: PR302333 (antibody, human IgG1, kappa, V domains shown)
VH: QIQLVQSGPELKKPGETVKISCKASGYTFTNFGMNWVKQAPGKVLKWMGWINTYTGEPIYADDFKGRFAFSLETSASAAYLQINNLKNEDTATYFCSRSTMITTGGVFAYWGQGTLVTVSA
VL: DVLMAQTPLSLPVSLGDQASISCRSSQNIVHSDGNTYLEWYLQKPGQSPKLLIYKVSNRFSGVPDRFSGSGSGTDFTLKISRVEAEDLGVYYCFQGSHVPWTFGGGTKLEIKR
notes: Mouse variable domains, expressed recombinantly with human IgG1 wildtype Fc; also called Series 7 mAb
- hCRHR1 Reporter IC50 [1]: 1920 pM
- EC50 (CRH (NT-Biotin) [2]): 35 pM
- EC50 (CRH (CT-Biotin) [3]): 22 pM

B2: PR302332 (antibody, human IgG1, kappa, V domains shown)
VH: B1 VH with N35H, D62A, A78T
VL: DVLMAQTPLSLPVSLGDQASISCRSSQSIVHSDGNTYLEWYLQKPGQSPKLLIYKVSNRFSGVPDRFSGSGSGTDFTLKISRVEAEDLGVYYCFQGSHVPWTFGGGTKLEIKR
notes: as for B1
- hCRHR1 Reporter IC50 [1]: 1930 pM
- EC50 (CRH (NT-Biotin) [2]): 107 pM
- EC50 (CRH (CT-Biotin) [3]): 72 pM

B3: PR302309 (antibody, human IgG1, kappa, V domains shown)
VH: B1 VH with F32Y, A61T, A78T
VL: B2 VL with S28T
notes: as for B1
- hCRHR1 Reporter IC50 [1]: 1380 pM
- EC50 (CRH (NT-Biotin) [2]): 28 pM
- EC50 (CRH (CT-Biotin) [3]): 15 pM

B4: PR005657 (antibody, human IgG1, kappa, V domains shown)
VH: EVQLVESGGVLVQPGGSLRLSCAASGFTFSSYWMTWVRQAPGKGLEWVANIKQDASEKYYVDSVKGRFTISRDNAKNSLFLQMNSLRAEDTAVYYCARTLIFDYWGQGTLVTVSS
VL: DIVMTQSPLSLPVTPGEPASISCRSSQSLLHSTGYNSLEWYLQKPGQSPQLLIYLGSNRASGVPDRFSGSGSGTDFTLKISRVEAEDVGIYYCMQTLQTPITFGQGTRLEIKR
notes: PTM-removal variant of PR004290
- hCRHR1 Luciferase Reporter Assay IC50 [4]: 4600 pM
- mCrhr1 Luciferase Reporter Assay IC50 [4]: 11800 pM
- EC50 (CRH (CT-Biotin) [5]): 45 pM

B7: PR302328 (antibody, human IgG1, kappa, V domains shown)
VH: EVKLVESGGGLVKPGGSLKLSCAASGFTFSSYAMSWVRQTPEKRLEWVASIRSGGTTYYPDSVKGRFTISRDNARNILYLQMSSLRSEDTAIYYCTRGIDWGQGTLVTVSA
VL: NIVMTQTPKFLLVSAGDRVTITCKASQSVNNDVAWYQQKPGQSPKLLIYYASNRYTGVPDRFTGSGYGTDFTFTISTVQAEDLAVYFCQQDYSSWTFGGGTKLEIKR
notes: Mouse variable domains, expressed recombinantly with human IgG1 wildtype Fc; also called Series 9 mAb
- hCRHR1 Reporter IC50 [1]: 545 pM
- EC50 (CRH (NT-Biotin) [2]): 43 pM
- EC50 (CRH (CT-Biotin) [3]): 30 pM

B9: PR302331 (antibody, human IgG1, kappa, V domains shown)
VH: B7 VH with T40S
VL: B7 VL with T22A
notes: as for B7
- hCRHR1 Reporter IC50 [1]: 390 pM
- EC50 (CRH (NT-Biotin) [2]): 16 pM
- EC50 (CRH (CT-Biotin) [3]): 20 pM

B11: PR301777 (antibody, human IgG1, kappa, V domains shown)
VH: EMKLEESGGGLVQPGGSMKLSCVASGFTFSNYWMNWVRQSPEKGLEWVAEIRLKSNNYATHYAESVKGRFTISRDDSKSGVYLQMNNLGAEDTGIYYCTVGTLVYWGQGTLVTVSA
VL: DIVLTQSPASLAVSLGQRATISCRASQSVSTSTYNYMHWFQQKPGQPPKLLIKFASNLESGVPARFSGSGSGTDFTLNIHPVEEEDTATFYCQHSWEIPYTFGGGTKLEIKR
notes: Series 5; mouse variable domains, human IgG1 wildtype Fc
- EC50 (CRH (CT-Biotin) [6]): 43 pM
- EC50 (CRH (NT-Biotin) [7]): 43 pM
- hCRHR1 Luciferase Reporter Assay IC50 [8]: 674 pM
- mCrhr1 Luciferase Reporter Assay IC50 [8]: 2420 pM

Continued by falling EC50 (CRH (NT-Biotin) [2]), values first:

- hCRHR1 Reporter IC50 [1]: 546 pM
- EC50 (CRH (NT-Biotin) [2]): 26 pM
- EC50 (CRH (CT-Biotin) [3]): 21 pM
B10: PR302334 (antibody, human IgG1, kappa, V domains shown)
VH: B7 VH with S31T
VL: B7 VL with V19I, K102N
notes: as for B7

- hCRHR1 Reporter IC50 [1]: 852 pM
- EC50 (CRH (NT-Biotin) [2]): 18 pM
- EC50 (CRH (CT-Biotin) [3]): 18 pM
B8: PR302339 (antibody, human IgG1, kappa, V domains shown)
VH: B7 VH with M34L
VL: B7 VL
notes: as for B7

- hCRHR1 Reporter IC50 [1]: 14000 pM
- EC50 (CRH (NT-Biotin) [2]): 14 pM
- EC50 (CRH (CT-Biotin) [3]): 8 pM
B5: PR302315 (antibody, human IgG1, kappa, V domains shown)
VH: DVQLVESGGGLMQPGGSRKLSCVASGFTFSSFGMHWVRQAPEKGLEWVAYISSGSSIIYYADTVKGRFTISRDNPKNILFLQMTSLRSEDTAMYYCARDITTATFAYWGQGTLVTVSA
VL: B2 VL with L3V, A5T, I29L, D33N, E39H, Y92F, F94S, G96S, S97T
notes: Mouse variable domains, expressed recombinantly with human IgG1 wildtype Fc; also called Series 8 mAb

- hCRHR1 Reporter IC50 [1]: 3720 pM
- EC50 (CRH (NT-Biotin) [2]): 14 pM
- EC50 (CRH (CT-Biotin) [3]): 16 pM
B6: PR302335 (antibody, human IgG1, kappa, V domains shown)
VH: B5 VH with M12V, V23A, S56T, I58F, I78T, Y107F
VL: DVVLTQTPLSLPVSLGDQVSISCRSSQNLLHNNGNTYLHWYLQKPGQSPRLLIYKVSNRFSGVPDRFSGSGSGTDFTLKITRVEAEDLGVYFCSQSTHIPWTFGGGTKLEIKR
notes: as for B5
